Read-outs that look alike come from different tables or passages of the source. Starred links: 1 amine or outer side, 2 acyl side, 3 side chain; linkers in the order of their positions; H or OH if unused. Positions of bridges follow the written chain, without caps; N, C: chain ends. Groups on a side chain read outwards from the residue. *: point of attachment. γGlu = O=C(O)[C@H](CCC(=O)[*:2])N[*:1]; Palmitoyl = CCCCCCCCCCCCCCCC(=O)*; Isovaleryl = CC(C)CC(=O)*
Assays:
Experiment in all cases: cell-based or functional assay
[1] = target: T1, human ferroportin (SLC40A1) fused in frame with GFP, stably expressed in HEK293 cells (human, UniProt Q9NP59 1-571)
T1 sequence (looked up): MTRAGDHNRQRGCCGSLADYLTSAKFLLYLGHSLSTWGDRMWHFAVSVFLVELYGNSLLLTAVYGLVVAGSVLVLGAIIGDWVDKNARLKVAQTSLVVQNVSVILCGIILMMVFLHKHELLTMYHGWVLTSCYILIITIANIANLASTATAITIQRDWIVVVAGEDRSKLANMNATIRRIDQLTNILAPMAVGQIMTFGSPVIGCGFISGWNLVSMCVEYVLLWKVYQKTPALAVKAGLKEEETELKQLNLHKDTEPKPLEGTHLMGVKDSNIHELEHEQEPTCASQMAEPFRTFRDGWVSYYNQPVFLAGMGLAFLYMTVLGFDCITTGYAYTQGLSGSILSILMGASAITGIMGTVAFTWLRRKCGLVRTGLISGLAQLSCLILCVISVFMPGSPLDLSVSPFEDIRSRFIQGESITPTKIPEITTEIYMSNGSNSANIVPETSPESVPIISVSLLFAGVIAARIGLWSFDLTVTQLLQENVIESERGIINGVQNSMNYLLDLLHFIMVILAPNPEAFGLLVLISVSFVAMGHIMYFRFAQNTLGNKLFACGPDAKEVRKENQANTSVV

[2] = target: T1, human ferroportin (SLC40A1) fused in …; remark: listed apart in the source
[3] = target: T1, human ferroportin (SLC40A1) fused in …; remark: listed apart in the source

B1: Compound 10 (peptide)
peptide: DTHFPCIKFKPRSKXC
modifications: N-terminal isovaleric acid; Lys 10 carries IsoGlu-Palm; Sar (sarcosine) at 15; C-terminal NH2 (amide)
HEK-GFP cell based assay: potency EC50 (loss of ferroportin-GFP fluorescence) [1]: 10 nM

B2: Compound 15 (peptide)
peptide: DTHFPCIKFKPRSKGCK
modifications: N-terminal isovaleric acid; Lys 10 carries isoGlu-Isovaleric acid; C-terminal NH2 (amide)
HEK-GFP cell based assay: potency EC50 (loss of ferroportin-GFP fluorescence) [1]: 26 nM

B3: Compound 17 (peptide)
peptide: DTHFPCIKFKPRSKGCK
modifications: N-terminal isovaleric acid; Lys 10 carries PEG11-Palm; C-terminal NH2 (amide)
HEK-GFP cell based assay: potency EC50 (loss of ferroportin-GFP fluorescence) [1]: 30 nM

B4: Compound 20 (peptide)
peptide: DTHFPCIKFKPRSKGCK
modifications: N-terminal isovaleric acid; Lys 10 carries Palm; C-terminal NH2 (amide)
HEK-GFP cell based assay: potency EC50 (loss of ferroportin-GFP fluorescence) [1]: 19 nM

B5: Compound 19 (peptide)
peptide: DTHFPCIKFKPRSKGCK
modifications: N-terminal isovaleric acid; Lys 10 carries PEG11-Myristic acid; C-terminal NH2 (amide)
HEK-GFP cell based assay: potency EC50 (loss of ferroportin-GFP fluorescence) [1]: 30 nM

B6: Compound 22 (peptide)
peptide: DTHFPCIKFKPRSKGCK
modifications: N-terminal isovaleric acid; Lys 10 carries Ahx-Palm; C-terminal NH2 (amide)
HEK-GFP cell based assay: potency EC50 (loss of ferroportin-GFP fluorescence) [1]: 18 nM

B7: Compound 14 (peptide)
peptide: DTHFPCIKFKPRSKGCK
modifications: N-terminal isovaleric acid; Lys 10 carries isoGlu-Bioitin (biotin); C-terminal NH2 (amide)
HEK-GFP cell based assay: potency EC50 (loss of ferroportin-GFP fluorescence) [1]: 29 nM

B8: RI-Mini Hepcidin (peptide)
peptide: FICIPFHTD
modifications: all residues are D-amino acids (retro inverse of mini-hepcidin); C-terminal NH2 (amide)
Potency EC50 (nM), ferroportin degradation in ferroportin-GFP HEK293 cells [2]: > 10000 nM

B9: Compound 32 (peptide)
peptide: DTHFPCIKFXX
modifications: N-terminal isovaleric acid on each subunit; the two subunits are joined by IDA-[βala] that carries Peg11-Palm
HEK-GFP cell based assay: potency EC50 (loss of ferroportin-GFP fluorescence) [3]: 13 nM

B10: Compound 11 (peptide)
peptide: Isovaleryl-DTHFPCKKFK([γGlu-Palmitoyl])PRSKGCK-NH2
modifications: disulfide 6-16 (inferred)
HEK-GFP cell based assay: potency EC50 (loss of ferroportin-GFP fluorescence) [1]: 22 nM

B11: Compound 18 (peptide)
peptide: DTHFPCIKFKPRSKGCK
modifications: N-terminal isovaleric acid; Lys 10 carries PEG11-Lauric acid; C-terminal NH2 (amide)
HEK-GFP cell based assay: potency EC50 (loss of ferroportin-GFP fluorescence) [1]: 36 nM

B12: Compound 31 (peptide)
peptide: DTHFPCIKFXX
modifications: N-terminal isovaleric acid on each subunit; the two subunits are joined by IDA-[βala] that carries Peg2-Palm
HEK-GFP cell based assay: potency EC50 (loss of ferroportin-GFP fluorescence) [3]: 8 nM

B13: Compound 24 (peptide)
peptide: DTHFPCIKFKPRSKXCK
modifications: N-terminal isovaleric acid; Lys 10 carries Ahx-Palm; Sar (sarcosine) at 15; C-terminal NH2 (amide)
HEK-GFP cell based assay: potency EC50 (loss of ferroportin-GFP fluorescence) [1]: 10 nM

B14: Compound 6 (peptide)
peptide: DTHFPCIKFKPRSKXCK
modifications: N-terminal isovaleric acid; Lys 10 carries IsoGlu-Palm; Sar (sarcosine) at 15; C-terminal NH2 (amide)
HEK-GFP cell based assay: potency EC50 (loss of ferroportin-GFP fluorescence) [1]: 11 nM

B15: Compound 30 (peptide)
peptide: Isovaleryl-DTHFPCIRFK([γGlu-Octanoic acid])-NH2
modifications: also: dimer: two subunits joined at their C-termini through the Lys linker
HEK-GFP cell based assay: potency EC50 (loss of ferroportin-GFP fluorescence) [3]: 18 nM

B16: Compound 21 (peptide)
peptide: DTHFPCIKFKPRSKGCK
modifications: N-terminal isovaleric acid; Lys 10 carries PEG8; C-terminal NH2 (amide)
HEK-GFP cell based assay: potency EC50 (loss of ferroportin-GFP fluorescence) [1]: 32 nM

B17: Compound 9 (peptide)
peptide: DTHFPCIKFKPRSKGC
modifications: N-terminal isovaleric acid; Lys 10 carries IsoGlu-Palm; C-terminal NH2 (amide)
HEK-GFP cell based assay: potency EC50 (loss of ferroportin-GFP fluorescence) [1]: 11 nM

B18: Compound 13 (peptide)
peptide: DTHFPCIKFKPRSKGCK
modifications: N-terminal isovaleric acid; Lys 10 carries isoGlu-Myristic acid; C-terminal NH2 (amide)
HEK-GFP cell based assay: potency EC50 (loss of ferroportin-GFP fluorescence) [1]: 10 nM

B19: Compound 12 (peptide)
peptide: DTHFPCIKFKPRSKGCK
modifications: N-terminal isovaleric acid; Lys 10 carries isoGlu-Lauric acid; C-terminal NH2 (amide)
HEK-GFP cell based assay: potency EC50 (loss of ferroportin-GFP fluorescence) [1]: 14 nM

B20: Compound 25 (peptide)
peptide: DTHFPCIKFKPRSKGCK
modifications: N-terminal isovaleric acid; Lys 10 carries Ac (acetyl); C-terminal NH2 (amide)
HEK-GFP cell based assay: potency EC50 (loss of ferroportin-GFP fluorescence) [1]: 14 nM

B21: Mini-Hepcidin 1-9 (peptide)
peptide: H-DTHFPICIF-NH2
Potency EC50 (nM), ferroportin degradation in ferroportin-GFP HEK293 cells [2]: 712 nM

B22: Compound 16 (peptide)
peptide: DTHFPCIKFKPRSKGCK
modifications: N-terminal isovaleric acid; Lys 10 carries PEG2-Palm; C-terminal NH2 (amide)
HEK-GFP cell based assay: potency EC50 (loss of ferroportin-GFP fluorescence) [1]: 36 nM

Source: patent US20190002503A1 (published 2019)
